The target of assay [1] is T1, PKC-ι in extracts of human cell lines (human, UniProt P41743 2-596).
T1 construct: Denatured on the Western blot membrane; also called PKC-iota (cell extract)
T1 sequence (looked up): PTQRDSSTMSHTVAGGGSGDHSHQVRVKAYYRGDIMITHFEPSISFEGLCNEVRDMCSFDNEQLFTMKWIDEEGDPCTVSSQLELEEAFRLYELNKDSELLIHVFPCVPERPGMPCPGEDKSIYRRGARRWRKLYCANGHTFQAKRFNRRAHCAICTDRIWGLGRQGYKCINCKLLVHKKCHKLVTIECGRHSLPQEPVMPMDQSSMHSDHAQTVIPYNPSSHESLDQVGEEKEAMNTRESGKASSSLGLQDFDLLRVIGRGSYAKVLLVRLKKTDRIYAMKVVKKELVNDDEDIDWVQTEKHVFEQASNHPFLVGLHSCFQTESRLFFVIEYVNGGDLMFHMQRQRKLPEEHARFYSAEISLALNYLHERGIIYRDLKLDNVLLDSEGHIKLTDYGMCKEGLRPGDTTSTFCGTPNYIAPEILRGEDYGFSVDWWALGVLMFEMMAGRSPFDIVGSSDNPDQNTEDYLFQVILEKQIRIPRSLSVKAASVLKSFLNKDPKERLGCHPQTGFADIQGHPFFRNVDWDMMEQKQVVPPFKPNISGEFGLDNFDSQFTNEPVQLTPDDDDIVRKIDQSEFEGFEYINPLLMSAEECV
The assay is described as follows: Western-blot competition, cell extracts: PRE at 10X/20X the anti-PKC iota primary antibody concentration competes with that antibody; band densitometry (lower band = PRE bound).

In assay [2] the target is T2, PKC-ζ in extracts of human cell lines (human, UniProt Q05513 1-592).
T2 construct: Denatured on the Western blot membrane; also called PKC-zeta (cell extract)
T2 sequence (looked up): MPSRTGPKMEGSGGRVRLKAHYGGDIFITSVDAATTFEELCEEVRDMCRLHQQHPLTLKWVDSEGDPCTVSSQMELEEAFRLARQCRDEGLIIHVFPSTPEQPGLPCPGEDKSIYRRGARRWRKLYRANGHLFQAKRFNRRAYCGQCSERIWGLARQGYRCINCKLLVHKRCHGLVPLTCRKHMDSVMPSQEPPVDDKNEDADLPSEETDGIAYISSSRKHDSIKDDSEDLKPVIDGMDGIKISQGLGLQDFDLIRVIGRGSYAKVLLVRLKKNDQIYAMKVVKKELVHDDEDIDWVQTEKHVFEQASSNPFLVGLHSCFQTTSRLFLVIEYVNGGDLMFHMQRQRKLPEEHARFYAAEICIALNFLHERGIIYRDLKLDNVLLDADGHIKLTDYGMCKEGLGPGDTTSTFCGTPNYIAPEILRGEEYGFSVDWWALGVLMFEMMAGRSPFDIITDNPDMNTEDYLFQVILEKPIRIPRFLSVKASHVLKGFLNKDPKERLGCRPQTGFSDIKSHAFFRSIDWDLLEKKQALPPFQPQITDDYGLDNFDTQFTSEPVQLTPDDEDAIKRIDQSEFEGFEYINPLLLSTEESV
The assay is described as follows: Western-blot competition, cell extracts: PRE at 10X/20X the anti-PKC zeta primary antibody concentration competes with that antibody; band densitometry (lower band = PRE bound).

Assay [3] addresses T3, PKC-βII, purified isoform (UniProt P05771-2 1-673).
T3 construct: also called PKC-beta II; beta 2
As to the kind of experiment: purified isoform competition ELISA, summary grade.

Assay [4] concerns the target T2, PKC-ζ in extracts of human cell lines. As to the kind of experiment: Western-blot competition, cell extracts: PRE at 10X/20X the anti-PKC zeta primary antibody concentration competes with that antibody; band densitometry (lower band = PRE bound). This is another data set of the same source.
Assay [5] has as its target T1, PKC-ι in extracts of human cell lines. The assay is described as follows: Western-blot competition, cell extracts: PRE at 10X/20X the anti-PKC iota primary antibody concentration competes with that antibody; band densitometry (lower band = PRE bound). This is another data set of the same source.
For assay [6] the target is unchanged. The description is as above. The source holds these as a separate data set.
Assay [7] concerns the target T4, PKC-ε, purified isoform (UniProt Q02156 1-737).
T4 construct: also called PKC-epsilon; epsilon
T4 sequence (looked up): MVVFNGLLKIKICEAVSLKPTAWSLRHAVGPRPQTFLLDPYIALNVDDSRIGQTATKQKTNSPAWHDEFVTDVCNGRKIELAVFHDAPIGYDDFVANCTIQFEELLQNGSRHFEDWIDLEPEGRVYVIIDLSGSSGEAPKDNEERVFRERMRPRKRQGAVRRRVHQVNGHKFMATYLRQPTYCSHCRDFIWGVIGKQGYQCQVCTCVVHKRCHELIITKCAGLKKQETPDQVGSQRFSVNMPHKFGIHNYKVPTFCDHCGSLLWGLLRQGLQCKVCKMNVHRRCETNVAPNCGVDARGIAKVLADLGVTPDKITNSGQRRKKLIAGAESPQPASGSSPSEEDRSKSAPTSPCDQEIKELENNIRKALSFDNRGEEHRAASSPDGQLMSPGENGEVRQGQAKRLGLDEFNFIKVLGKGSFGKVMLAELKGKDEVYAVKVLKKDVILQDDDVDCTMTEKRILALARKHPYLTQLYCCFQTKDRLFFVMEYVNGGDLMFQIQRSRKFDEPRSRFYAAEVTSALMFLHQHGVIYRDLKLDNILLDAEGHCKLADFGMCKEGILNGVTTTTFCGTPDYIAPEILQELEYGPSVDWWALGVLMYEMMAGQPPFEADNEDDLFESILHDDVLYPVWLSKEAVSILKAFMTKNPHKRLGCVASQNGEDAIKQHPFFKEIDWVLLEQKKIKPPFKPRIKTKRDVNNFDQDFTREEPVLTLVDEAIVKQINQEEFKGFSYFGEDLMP
The assay is described as follows: competition ELISA on coated purified PKC-ε vs anti-PKC ε antibody; PRE 200 µM.

Assay [8] concerns the target T2, PKC-ζ in extracts of human cell lines. As to the kind of experiment: Western-blot competition, cell extracts: PRE at 10X/20X the anti-PKC zeta primary antibody concentration competes with that antibody; band densitometry (lower band = PRE bound). The source holds these as a separate data set.
The target of assay [9] is T4, PKC-ε, purified isoform. As to the kind of experiment: competition ELISA on coated purified PKC-ε vs anti-PKC ε antibody; PRE 100 µM. On the technique in general: In an ELISA, binding on a coated surface is turned into a signal by an enzyme label.
The target in assay [10] is T4, PKC-ε, purified isoform. The assay is described as follows: competition ELISA on coated purified PKC-ε vs anti-PKC ε antibody; PRE 50 µM.
In assay [11] the target is T1, PKC-ι in extracts of human cell lines. The assay is described as follows: Western-blot competition, cell extracts: PRE at 10X/20X the anti-PKC iota primary antibody concentration competes with that antibody; band densitometry (lower band = PRE bound). The source holds these as a separate data set.
Assay [12] has the same target. Described as above. The source holds these as a separate data set.
Assay [13] has as its target T2, PKC-ζ in extracts of human cell lines. The assay is described as follows: Western-blot competition, cell extracts: PRE at 10X/20X the anti-PKC zeta primary antibody concentration competes with that antibody; band densitometry (lower band = PRE bound). This is another data set of the same source.
Assay [14] concerns the target T5, PKC-βI in extracts of human cell lines (human, UniProt P05771-1 2-671).
T5 construct: Denatured on the Western blot membrane; beta I splice form; also called PKC-beta I (cell extract)
The assay is described as follows: Western-blot competition, cell extracts: PRE at 10X/20X the anti-PKC beta I primary antibody concentration competes with that antibody; band densitometry (lower band = PRE bound).

For assay [15], the target named is T6, PKC-ε in extracts of human cell lines (human, UniProt Q02156 1-737).
T6 construct: Denatured on the Western blot membrane; also called PKC-epsilon (cell extract)
T6 sequence (looked up): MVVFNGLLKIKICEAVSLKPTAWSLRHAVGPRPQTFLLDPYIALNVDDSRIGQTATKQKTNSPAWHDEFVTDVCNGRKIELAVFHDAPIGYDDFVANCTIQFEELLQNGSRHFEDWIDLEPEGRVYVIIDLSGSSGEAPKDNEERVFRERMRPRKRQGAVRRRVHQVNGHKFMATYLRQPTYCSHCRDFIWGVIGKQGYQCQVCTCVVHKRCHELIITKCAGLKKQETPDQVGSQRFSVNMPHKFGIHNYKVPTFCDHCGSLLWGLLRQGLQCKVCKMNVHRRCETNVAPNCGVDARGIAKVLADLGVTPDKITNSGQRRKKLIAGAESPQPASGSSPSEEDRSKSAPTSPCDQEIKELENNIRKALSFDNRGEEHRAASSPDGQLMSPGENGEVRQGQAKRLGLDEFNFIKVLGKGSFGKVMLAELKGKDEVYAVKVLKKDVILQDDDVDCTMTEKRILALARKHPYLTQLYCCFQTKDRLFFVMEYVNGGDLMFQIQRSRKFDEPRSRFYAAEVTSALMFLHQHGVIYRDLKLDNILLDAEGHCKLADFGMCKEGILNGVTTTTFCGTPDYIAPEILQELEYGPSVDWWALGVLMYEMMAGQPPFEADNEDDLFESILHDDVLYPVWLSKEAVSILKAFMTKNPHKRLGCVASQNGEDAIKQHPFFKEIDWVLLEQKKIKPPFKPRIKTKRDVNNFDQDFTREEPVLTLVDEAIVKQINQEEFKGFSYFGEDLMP
The assay is described as follows: Western-blot competition, cell extracts: PRE at 10X/20X the anti-PKC epsilon primary antibody concentration competes with that antibody; band densitometry (lower band = PRE bound).

The target of assay [16] is T2, PKC-ζ in extracts of human cell lines. The assay is described as follows: Western-blot competition, cell extracts: PRE at 10X/20X the anti-PKC zeta primary antibody concentration competes with that antibody; band densitometry (lower band = PRE bound). The source holds these as a separate data set.
Assay [17] concerns the target T1, PKC-ι in extracts of human cell lines. The assay is described as follows: Western-blot competition, cell extracts: PRE at 10X/20X the anti-PKC iota primary antibody concentration competes with that antibody; band densitometry (lower band = PRE bound). This is another data set of the same source.
Assay [18] concerns the target T4, PKC-ε, purified isoform. The assay is described as follows: purified isoform competition ELISA, summary grade.
Assay [19] has as its target T7, PKC-βI, purified isoform (UniProt P05771-1 1-671).
T7 construct: also called PKC-beta I; beta 1
As to the kind of experiment: purified isoform competition ELISA, summary grade.

Like-named read-outs stand apart in the source and are kept apart here.

T3 sequence (P05771 other isoform, or with tags, fused parts or gaps limits assumed): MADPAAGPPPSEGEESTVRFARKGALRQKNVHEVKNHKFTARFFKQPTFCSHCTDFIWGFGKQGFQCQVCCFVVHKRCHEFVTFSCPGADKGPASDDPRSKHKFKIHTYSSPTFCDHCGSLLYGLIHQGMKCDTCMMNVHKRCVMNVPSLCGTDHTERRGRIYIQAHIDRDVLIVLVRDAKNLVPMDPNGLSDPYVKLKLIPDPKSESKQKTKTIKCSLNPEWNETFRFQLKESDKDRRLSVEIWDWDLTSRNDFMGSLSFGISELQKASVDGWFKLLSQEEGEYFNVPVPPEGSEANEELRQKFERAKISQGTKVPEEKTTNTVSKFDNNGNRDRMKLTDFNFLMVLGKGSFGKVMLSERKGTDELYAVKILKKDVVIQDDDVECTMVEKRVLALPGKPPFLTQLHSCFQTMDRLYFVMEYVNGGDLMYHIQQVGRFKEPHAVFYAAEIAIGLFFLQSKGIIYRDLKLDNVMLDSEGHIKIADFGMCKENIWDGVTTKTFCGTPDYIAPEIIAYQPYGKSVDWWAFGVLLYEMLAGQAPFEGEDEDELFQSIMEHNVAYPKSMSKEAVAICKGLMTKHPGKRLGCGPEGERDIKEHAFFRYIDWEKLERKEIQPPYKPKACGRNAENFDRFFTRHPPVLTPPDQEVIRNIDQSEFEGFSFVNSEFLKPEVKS
T7 sequence (P05771 whole entry, canonical isoform): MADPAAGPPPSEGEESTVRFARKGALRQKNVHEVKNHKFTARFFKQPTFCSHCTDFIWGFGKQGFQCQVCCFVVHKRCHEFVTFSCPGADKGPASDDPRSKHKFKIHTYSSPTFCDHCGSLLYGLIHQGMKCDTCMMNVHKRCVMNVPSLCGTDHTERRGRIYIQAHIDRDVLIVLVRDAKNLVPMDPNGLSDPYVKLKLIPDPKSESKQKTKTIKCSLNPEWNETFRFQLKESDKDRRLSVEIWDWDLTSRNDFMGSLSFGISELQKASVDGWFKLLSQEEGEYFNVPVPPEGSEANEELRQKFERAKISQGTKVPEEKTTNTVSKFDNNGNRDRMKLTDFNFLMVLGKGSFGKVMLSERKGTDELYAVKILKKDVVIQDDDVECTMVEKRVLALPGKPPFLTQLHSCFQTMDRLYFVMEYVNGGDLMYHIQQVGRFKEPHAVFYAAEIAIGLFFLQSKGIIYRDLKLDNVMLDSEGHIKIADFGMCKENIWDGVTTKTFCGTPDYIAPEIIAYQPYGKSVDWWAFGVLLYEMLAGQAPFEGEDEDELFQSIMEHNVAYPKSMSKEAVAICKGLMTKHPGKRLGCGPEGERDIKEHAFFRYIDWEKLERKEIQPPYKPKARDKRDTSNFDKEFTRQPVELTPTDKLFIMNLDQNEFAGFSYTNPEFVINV
T5 sequence (P05771 2-671 limits assumed): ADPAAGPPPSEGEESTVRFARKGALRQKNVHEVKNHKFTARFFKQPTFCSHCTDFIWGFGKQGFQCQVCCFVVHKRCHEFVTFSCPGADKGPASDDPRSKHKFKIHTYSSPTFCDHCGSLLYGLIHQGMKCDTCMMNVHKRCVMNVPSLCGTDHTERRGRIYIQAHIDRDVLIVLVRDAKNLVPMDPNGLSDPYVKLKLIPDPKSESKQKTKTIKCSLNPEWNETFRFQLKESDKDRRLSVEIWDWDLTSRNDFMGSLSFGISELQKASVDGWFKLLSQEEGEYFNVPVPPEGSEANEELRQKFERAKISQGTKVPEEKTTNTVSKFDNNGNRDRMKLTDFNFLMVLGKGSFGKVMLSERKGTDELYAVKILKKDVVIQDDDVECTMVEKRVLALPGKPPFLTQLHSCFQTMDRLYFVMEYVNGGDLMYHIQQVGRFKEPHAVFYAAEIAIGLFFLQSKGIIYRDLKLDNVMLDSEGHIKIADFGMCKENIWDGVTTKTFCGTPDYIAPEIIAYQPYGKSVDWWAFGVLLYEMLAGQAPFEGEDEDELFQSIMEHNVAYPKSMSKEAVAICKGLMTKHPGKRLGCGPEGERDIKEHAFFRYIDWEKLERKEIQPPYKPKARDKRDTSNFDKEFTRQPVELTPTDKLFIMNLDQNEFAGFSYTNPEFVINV

B1: PRE 1 (peptide)
peptide: RRKKGGKDFVVKR
notes: also called peptide recognition element 1
On to B1, for which the binding result was “no binding (tested: 20X the primary antibody concentration)” in assay [1], “binds” in [2] and “no binding” in assay [3].

B2: PRE 6 (peptide)
peptide: Ac-KDANQLIGISI-NH2
notes: also called peptide recognition element 6
For B2, the binding result in assay [4] was “no binding (tested: 20X the primary antibody concentration)”; in assay [5], “no binding (tested: 20X the primary antibody concentration)”; in [3], “no binding”.

B3: PRE 4 (peptide)
peptide: Ac-KDAQNLIGISI-NH2
notes: also called peptide recognition element 4
With B3, the binding result in assay [6] is given as “binds”.

B4: PRE 11 (peptide)
peptide: Ac-RDAQNLIGISI-NH2
notes: also called peptide recognition element 11
With B4, the relative binding capacity in assay [7] turned out to be 9.84%; in assay [9], 13%; in assay [10], 2.25%. For the same molecule, in assay [8], the binding result is recorded as “no binding (tested: 20X the primary antibody concentration)”.

B5: PRE 7 (peptide)
peptide: Ac-ISIGILQNADK-NH2
notes: also called peptide recognition element 7
On to B5, for which the relative binding capacity in assay [7] is 3.78%; in [9], 14%; in [10], 8.04%. For the same molecule, the binding result in assay [11] is “no binding (tested: 20X the primary antibody concentration)”.

B6: PRE 3 (peptide)
peptide: Ac-AKGIQEVKGGDAQNLIGISI-NH2
notes: also called peptide recognition element 3
On to B6, for which the binding result in assay [12] is “binds”. The relative binding capacity in assay [7] turned out to be 31%; in [9] it was 31.5%; in assay [10], 34%.

B7: PRE 5 (peptide)
peptide: Ac-AKGIQEVKGGKDAQNLIGISI-NH2
notes: also called peptide recognition element 5
With B7, the binding result in assay [13] is listed as “binds”.

B8: PRE 13 (peptide)
peptide: Ac-RDAQNLI-NH2
notes: Ac-RDAQNLI-NH2; also called peptide recognition element 13
B8: the binding result in [14] is “no binding (tested: 20X the primary antibody concentration)”; in [15], “no binding (tested: 20X the primary antibody concentration)”; in assay [16], “no binding (tested: 20X the primary antibody concentration)”; in assay [17] it was “no binding (tested: 20X the primary antibody concentration)”; in assay [3], “no binding”; in [18], “no binding”. Moreover, the binding result in assay [19] was “no binding”. Further, the relative binding capacity turned out to be 0.85% in assay [7], 0% in [9] and 0% in [10].

Values taken from patent US20110039770A1 (PHARMAGAP, published 2011).
